Results as given in patent publication US20020147170A1 (priority 2000, published 2002).
Changes are numbered by the printed parent chain.

B1: Asp142Ala mutant: α1 adrenergic receptor DRY motif mutant (protein, UniProt P18841 1-515, looked up, variant D142A)
Alpha-1B adrenergic receptor: MNPDLDTGHNTSAPAQWGELKDANFTGPNQTSSNSTLPQLDVTRAISVGLVLGAFILFAIVGNILVILSVACNRHLRTPTNYFIVNLAIADLLLSFTVLPFSATLEVLGYWVLGRIFCDIWAAVDVLCCTASILSLCAISIARYIGVRYSLQYPTLVTRRKAILALLSVWVLSTVISIGPLLGWKEPAPNDDKECGVTEEPFYALFSSLGSFYIPLAVILVMYCRVYIVAKRTTKNLEAGVMKEMSNSKELTLRIHSKNFHEDTLSSTKAKGHNPRSSIAVKLFKFSREKKAAKTLGIVVGMFILCWLPFFIALPLGSLFSTLKPPDAVFKVVFWLGYFNSCLNPIIYPCSSKEFKRAFMRILGCQCRSGRRRRRRRRLGACAYTYRPWTRGGSLERSQSRKDSLDDSGSCMSGSQRTLPSASPSPGYLGRGAQPPLELCAYPEWKSGALLSLPEPPGRRGRLDSGPLFTFKLLGEPESPGTEGDASNGGCDATTDLANGQPGFKSNMPLAPGHF
B2: Cys128Phe mutant: α1 adrenergic receptor mutant in transmembrane domain III (protein, UniProt P18841 1-515, looked up, variant C128F)
Alpha-1B adrenergic receptor: B1 Alpha-1B adrenergic receptor with C128F, A142D
B3: Ala204Val mutant: α1 adrenergic receptor mutant in transmembrane domain V (protein, UniProt P18841 1-515, looked up, variant A204V)
Alpha-1B adrenergic receptor: B1 Alpha-1B adrenergic receptor with A142D, A204V
B4: Ala293Glu mutant: α1 adrenergic receptor mutant at carboxyl end of IC3 (protein, UniProt P18841 1-515, looked up, variant A293E)
Alpha-1B adrenergic receptor: B1 Alpha-1B adrenergic receptor with A142D, A293E
B5: Arg143Lys mutant: α1 adrenergic receptor DRY motif mutant (protein, UniProt P18841 1-515, looked up, variant R143K)
Alpha-1B adrenergic receptor: B1 Alpha-1B adrenergic receptor with A142D, R143K
B6: Asn63Ala mutant: α1 adrenergic receptor mutant at conserved Asn63 (protein, UniProt P18841 1-515, looked up, variant N63A)
Alpha-1B adrenergic receptor: B1 Alpha-1B adrenergic receptor with N63A, A142D
B7: His223Arg: polymorphic constitutively active PTH receptor mutant from Jansen's metaphyseal chondrodysplasia patients (protein, UniProt Q03431 27-593, looked up, variant H223R)
Parathyroid …: DADDVMTKEEQIFLLHRAQAQCEKRLKEVLQRPASIMESDKGWTSASTSGKPRKDKASGKLYPESEEDKEAPTGSRYRGRPCLPEWDHILCWPLGAPGEVVAVPCPDYIYDFNHKGHAYRRCDRNGSWELVPGHNRTWANYSECVKFLTNETREREVFDRLGMIYTVGYSVSLASLTVAVLILAYFRRLHCTRNYIRMHLFLSFMLRAVSIFVKDAVLYSGATLDEAERLTEEELRAIAQAPPPPATAAAGYAGCRVAVTFFLYFLATNYYWILVEGLYLHSLIFMAFFSEKKYLWGFTVFGWGLPAVFVAVWVSVRATLANTGCWDLSSGNKKWIIQVPILASIVLNFILFINIVRVLATKLRETNAGRCDTRQQYRKLLKSTLVLMPLFGVHYIVFMATPYTEVSGTLWQVQMHYEMLFNSFQGFFVAIIYCFCNGEVQAEIKKSWSRWTLALDFKRKARSGSSSYSYGPMVSHTSVTNVGPRVGLGLPLSPRLLPTATTNGHPQLPGHAKPGTPALETLETTPPAMAAPKDDGFLNGSCSGLDEEASGPERPPALLQEEWETVM
B8: Thr410Pro: polymorphic constitutively active PTH receptor missense mutant (protein, UniProt Q03431 27-593, looked up, variant T410P)
Parathyroid …: B7 Parathyroid … with R197H, T384P
B9: wild-type rat mu opioid receptor: wild-type rat mu opioid receptor expressed from an expression vector, comparator (protein, UniProt P33535 1-398, looked up)
Mu-type opioid receptor: MDSSTGPGNTSDCSDPLAQASCSPAPGSWLNLSHVDGNQSDPCGLNRTGLGGNDSLCPQTGSPSMVTAITIMALYSIVCVVGLFGNFLVMYVIVRYTKMKTATNIYIFNLALADALATSTLPFQSVNYLMGTWPFGTILCKIVISIDYYNMFTSIFTLCTMSVDRYIAVCHPVKALDFRTPRNAKIVNVCNWILSSAIGLPVMFMATTKYRQGSIDCTLTFSHPTWYWENLLKICVFIFAFIMPVLIITVCYGLMILRLKSVRMLSGSKEKDRNLRRITRMVLVVVAVFIVCWTPIHIYVIIKALITIPETTFQTVSWHFCIALGYTNSCLNPVLYAFLDENFKRCFREFCIPTSSTIEQQNSTRVRQNTREHPSTANTVDRTNHQLENLEAETAPLP

Key:
[1] = target: wild-type rat mu opioid receptor (rat); assay: cell-based or functional assay
[2] = target: Asn150Ala mutant rat mu opioid receptor (rat) (UniProt P33535); assay: cell-based or functional assay
α1 adrenergic receptor = conditions: cited from earlier work
PTH receptor = conditions: COS-7 cells; cited from earlier work
rat mu opioid receptor = assay: SRE-Luc/Gq5i luciferase reporter assay in HEK293 cells; type: cell-based; conditions: SRE + Gq5i, HEK293 cells
Description: A positive assay for Gαi coupling (i.e., one that yields an increase in luciferase activity upon receptor activation, instead of a negative assay, one that yields a decrease in luciferase activity upon receptor activation), provides a detectable output signal and less interassay variation. It was hypothesized that Gαi coupling could be detected by altering the signaling pathway generated by Gαi coupled receptors. A chimeric G protein (Gqi5, Broach and Thorner, Nature 384 (Suppl.): 14-16 (1996)) that contains the entire Gαq protein having five C-terminal amino acids from Gαi attached to the C-terminus of Gαq has been generated. This chimeric G protein is recognized as Gαi by Gαi coupled receptors, but switches the receptor induced signaling from Gαi to Gαq. This allows Gαi receptor coupling to be detected using a positive assay by use of the Gαq responsive SMS-Luc or SRE-Luc construct (Stratagene, La Jolla, Calif.). SMS and SRE preferably respond to Gαq mediated inositol and calcium production. Moreover, detection can be carried out in the absence of forskolin pre-stimulation of cells.
Reagents & Solutions: The cell culture media used in the assays described below was Gibco BRL #12100-046. This media was made according to manufacturer's recipe, pH adjusted to 7.2, filtered (0.22 micron pore), and supplemented with 1% Pen/Strep (Gibco #15140-122; 100% penicillin G 10,000 units/ml, and streptomycin 10,000 μg/ml) and 10% fetal bovine serum. Cell culture media lacking 10% fetal bovine serum was also generated. DNA used in the transfection experiments was purified and quantitated by measuring the absorbance at OD260. A LucLite Luciferase Assay Kit (Packard) was used to quantitate luciferase activity. Transfections were carried out using LipofectAMINE Reagent (Gibco #18324-012).
The rat mu opioid receptor is a Gαi coupled receptor. Therefore we chose to use the Gq5i reporter system, described in detail above (Broach and Thorner, supra), which switches the signaling pathway from Gαi to Gαq for reliable positive readout. HEK293 cells were transfected with the reporter construct SRE-Luc, an expression vector containing nucleic acid encoding Gq5i (Broach and Thorner, supra), and an expression vector containing nucleic acid encoding either the wild-type or the Asn150Ala mutant rat mu opioid receptor. Basal and ligand-stimulated luciferase activity was measured. The ligand used in this assay was [D—Ala^2—MePhe^4, Gly-ol^5]enkephalin] (DAMGO). As a negative control, HEK293 cells were transfected with pcDNA1 (empty vector DNA), SRE-Luc, and the expression vector containing nucleic acid encoding Gq5i (Broach and Thorner, supra).
The luciferase assay was carried out as follows. On day 1, HEK293 cells in a T75 flask were washed with 15 ml serum-free media (or PBS), trypsinized with 5 ml 0.05% trypsin-EDTA (Gibco #25300-062), incubated at 37° C. for 3 minutes at which time 6-7 ml complete HEK293 media (Gibco #12100-046) and 10% Fetal Bovine Serum (Intergen #1050-90) were added. Thereafter, cells were collected in 50 ml centrifuge tubes, pelleted at 800-900 rpm (RCF˜275), and resuspend in 20 ml complete media. The cells were counted using a haemocytometer and diluted to 85,000 cells/ml in complete media. Using a repeat pipettor or cell plater, 100 μl of cells were added to each well of a Primaria 96-well plate (Falcon #353872). Cells were then incubated at 37° C., 5% CO2 until use at 48 hours.
On day 3, cells were transfected using LipofectAMINE™ according to the manufacturer's protocol (Gibco #18324-012, Rockville, Md.).
On day 4, cells were stimulated as follows. Ligands for the receptor, either DAMGO or a non-peptide ligand (e.g., naloxone or naltrexone), were diluted to a desired concentration in serum-free media containing 0.15 mM PMSF (or other protease inhibitor(s)). […]

| Molecule | constitutive activity (α1 adrenergic receptor) | other results |
| --- | --- | --- |
| [D-Ala^2-MePhe^4, Gly-ol^5]enkephalin (peptide) |  | Average Ligand Stimulated Activity (Light Emission) (light emission) [1]: 87500; Average Ligand Stimulated Activity (Light Emission) (light emission) [2]: 87000 |
| B1 | constitutively active |  |
| B2 | constitutively active |  |
| B3 | constitutively active |  |
| B4 | constitutively active |  |
| B5 | constitutively active |  |
| B6 | constitutively active |  |
| B7 |  | basal cyclic AMP accumulation vs cells expressing wild-type receptors (PTH receptor): four to six times higher |
| B8 |  | basal cyclic AMP accumulation vs cells expressing wild-type receptors (PTH receptor): four to six times higher |
| B9 |  | Average Ligand Stimulated Activity (Light Emission) (rat mu opioid receptor; ligand DAMGO): 87,461; Average Basal Activity (Light Emission) (rat mu opioid receptor; no ligand): 8,436 |
